Measurements as given in patent US20260167721A1 (ABLEXIS, published 2026).

Tests used:
[1] = target: T1, recombinant human CD3 epsilon/delta heterodimer (human, UniProt P07766 23-126; P04234 22-105); assay: Octet BLI, mAb on FAB2G sensor, hCD3 E/D 200-50 nM; R^2 0.98;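 note: antibodies purified from hybridoma supernatants, measured by Octet binding to recombinant human CD3 protein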
T1 construct: Recombinant protein in solution (200-50 nM) in the Octet assay; also called hCD3 E/D; human CD3E/D
Experimental: (§1) Samples were evaluated by flow cytometry analysis against Jurkat and human Pan-T cells (FIG. 1B) as well as by Octet against recombinant human CD3 proteins to evaluate apparent affinities and binding off-rates (Table 6, infra).

[2] = target: T2, recombinant human CD3 epsilon/gamma heterodimer (human, UniProt P07766 23-126; P09693 23-116); assay: Octet BLI, mAb on FAB2G sensor, hCD3 E/G 200-50 nM; R^2 0.98
T2 construct: Recombinant protein in solution (200-50 nM) in the Octet assay; also called hCD3 E/G
Experimental: as §1

[3] = target: T1, recombinant human CD3 epsilon/delta …; assay: Octet BLI, mAb on FAB2G sensor, hCD3 E/D 200-50 nM; R^2 0.99
[4] = target: T2, recombinant human CD3 epsilon/gamma …; assay: Octet BLI, mAb on FAB2G sensor, hCD3 E/G 200-50 nM; R^2 1.00
Experimental: as §1

[5] = target: T2, recombinant human CD3 epsilon/gamma …; assay: Octet BLI, mAb on FAB2G sensor, hCD3 E/G 200-50 nM; R^2 0.94
Experimental: as §1

[6] = target: T1, recombinant human CD3 epsilon/delta …; assay: Octet BLI, mAb on FAB2G sensor, hCD3 E/D 200-50 nM; R^2 1.00
CD33 on KILR-HL60 cells [7] = target: T3, CD33 on KILR-HL60 cells (UniProt P20138 18-364, limits assumed); assay: flow cytometry on KILR-HL60 (CD33 expressing) cells, antibody at 10 ug/ml
T3 construct: whole, on cells; Target of the gemtuzumab arm; also called CD33 expressing cells

CD33 on KILR-HL60 cells [8] = target: T3, CD33 on KILR-HL60 cells; assay: flow cytometry on KILR-HL60 (CD33 expressing) cells, antibody at 1 ug/ml
[9] = target: T1, recombinant human CD3 epsilon/delta …; assay: Octet BLI, mAb on FAB2G sensor, hCD3 E/D 200-50 nM; R^2 0.97
Experimental: as §1

T2 sequence (P07766 23-126, chain 1 of 2): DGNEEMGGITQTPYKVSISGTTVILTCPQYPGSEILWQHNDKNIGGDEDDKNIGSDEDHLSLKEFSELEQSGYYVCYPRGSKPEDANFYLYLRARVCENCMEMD
T2 sequence (P09693 23-116, chain 2 of 2): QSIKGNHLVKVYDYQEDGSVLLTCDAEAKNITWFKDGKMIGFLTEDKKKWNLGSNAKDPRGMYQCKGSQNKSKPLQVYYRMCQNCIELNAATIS
T1 sequence (P07766 23-126, stated change not applied, chain 1 of 2): as the sequence (P07766 23-126, chain 1 of 2) above
T1 sequence (P04234 22-105, stated change not applied, chain 2 of 2): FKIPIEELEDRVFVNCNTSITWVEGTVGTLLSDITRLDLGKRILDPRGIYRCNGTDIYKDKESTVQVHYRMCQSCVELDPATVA
T3 sequence (P20138 18-364 limits assumed): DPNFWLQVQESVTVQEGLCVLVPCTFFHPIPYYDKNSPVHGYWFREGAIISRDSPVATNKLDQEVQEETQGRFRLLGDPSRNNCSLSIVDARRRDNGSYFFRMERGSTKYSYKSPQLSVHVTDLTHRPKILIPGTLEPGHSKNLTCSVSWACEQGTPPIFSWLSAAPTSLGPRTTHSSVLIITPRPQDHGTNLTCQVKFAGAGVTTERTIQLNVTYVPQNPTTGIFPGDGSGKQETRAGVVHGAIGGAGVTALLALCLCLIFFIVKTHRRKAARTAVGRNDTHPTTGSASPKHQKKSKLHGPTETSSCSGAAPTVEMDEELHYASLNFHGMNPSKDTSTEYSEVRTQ

B1: ABL-CD3-52 (antibody, V domains shown)
VH: EVQLVESGGGLVKPGGSLRLSCAASGFTFSYYSMNWVRQAPGKGLEWVSSISRSTTYIYYADSVKGRFTISRDNAKNSLYLQMNSLRAEDTAVYYCARDGKGAIFLDYWGQGTLVTVSS
VL: SYELTQPPSVSVSPGQTARITCSGDALPKKYAYWYQQKSGQAPVLVIYEDSKRPSGIPERFSGSSSGTMATLTISGAQVEDEADYYCYSTDSSGNHRVFGGGTKLTVL
notes: Chimeric hybridoma mAb: human V, CH1, upper hinge; mouse middle hinge, CH2, CH3
For B1, the Kd [1] was 54 nM, the Response [1] was 0.35 and the koff [1] was 0.0202 s⁻¹. For the same binder, the kon [1] was 373000 M⁻¹ s⁻¹, the Kd [2] was 233 nM and the Response [2] was 0.14. For the same binder, the koff [2] was 0.115 s⁻¹ and the kon [2] was 495000 M⁻¹ s⁻¹.

B2: ABL-CD3-25 (antibody, V domains shown)
VH: EVHLVESGGGLVKPGGSLRLSCAASGFTFSSYSMNWVRQAPGKGLEWVSSISSSSTYIYYADSVKGRFTISRDNAKNSLYLQMNSLRAEDTAVYYCAREPRTLGMDYWGQGILVTVSS
VL: NFMLTQPHSVSESPGKTVTISCTRSSGSIASNYVQWYQQRPGSSPTTVIYEDNHRPSGVPDRFSGSIDSSSNSASLTISGLKTEDEADYFCQSFDSSNRVFGGGTKLTVL
notes: as for B1
Binder B2 has a Kd [3] of 8.56 nM, a Response [3] of 1.32 and a koff [3] of 0.000933 s⁻¹. It also gave a kon [3] of 109000 M⁻¹ s⁻¹, a Kd [4] of 11.7 nM and a Response [4] of 1.27. It also gave a koff [4] of 0.00113 s⁻¹ and a kon [4] of 96600 M⁻¹ s⁻¹.

B3: ABL-CD3-51 (antibody, V domains shown)
VH: EVQLVESGGGLVKPGGSLRLSCAASGFTFSSYSMNWVRQAPGKGLEWVSSISRSSSYIYYADSVKGRFTISRDNAKNSLYLQMNSLRAEDTAVYYCARERWELLYFDYWGQGTLVTVSS
VL: NFMLTQPHSVSESPGKTVTISCTRSSGSIASNYVQWYQQRPGSSPTTVIYEDNQRPSGVPDRFSGSIDSSSNSASLTISGLKTEDEADYYCQSYDSSNRVFGGGTKLTVL
notes: as for B1
Binder B3 has a Kd [1] of 77.1 nM, a Response [1] of 0.21 and a koff [1] of 0.0188 s⁻¹. It also gave a kon [1] of 244000 M⁻¹ s⁻¹, a Kd [2] of 233 nM and a Response [2] of 0.06. For the same binder, the koff [2] was 0.163 s⁻¹ and the kon [2] was 699000 M⁻¹ s⁻¹.

B4: ABL-CD3-58 (antibody, V domains shown)
VH: EVQLVESGGGLVKPGGSLRLSCVVSGFTFSNYNMNWVRQAPGKGLEWVSSSSRSSYIYYADSVKGRFTISRDNAKNSLYLQMNSLRAEDTAIYYCAREKWELLFFDYWGQGTLVTVSS
VL: NFMLTQPHSVSESPGKTVTISCTRSSGSIASNFVQWYQQRPGSSPTTVIYEDNQRPSGVPDRFSGSIDSSSNSASLTISGLKTEDEADYYCQSFDSSNRVFGGGTKLTVL
notes: as for B1
In the case of B4, the Kd [5] is reported as 45.2 nM, the Response [5] is reported as 0.28 and the koff [5] is reported as 0.00705 s⁻¹. The kon [5] was 156000 M⁻¹ s⁻¹, the Kd [6] was 44.1 nM and the Response [6] was 0.57. The koff [6] was 0.00265 s⁻¹ and the kon [6] was 60100 M⁻¹ s⁻¹.

B5: ABL-CD3-62 (antibody, V domains shown)
VH: EVQLVESGGGLVKPGGSLRLSCAASGFTFSSYSMNWVRQAPGKGLEWVSSISRSSGYIFYADSVKGRFTISRDNAKNSLYLQMNSLRAEDTAVYYCVRERVGAGFDYWGQGTLVTVSS
VL: NFMLTQPHSVSESPGKTVAISCTRSSGSIASNYVQWYQQRPGSSPTAVIYEDNQRPSGVPDRFSGSIDSSSNSAFLTISGLKTEDEADYYCQSYDSSNRVFGGGTKLTVL
notes: as for B1
Work on B5 yielded a Kd [1] of 34 nM, a Response [1] of 0.56 and a koff [1] of 0.00765 s⁻¹. It also gave a kon [1] of 225000 M⁻¹ s⁻¹, a Kd [2] of 23.8 nM and a Response [2] of 0.69. It also gave a koff [2] of 0.00391 s⁻¹ and a kon [2] of 164000 M⁻¹ s⁻¹.

B6: ABL-CD3-1 (antibody, V domains shown)
VH: EVQLVESGGGLVKPGGSLRLSCAASGFTLSSYSMNWVRQAPGKGLEWVSSISRSGSYIYYADSVKGRFTISRDNAKNSLYLQMNSLRAEDTAVYYCAREKWELLYFDYWGQGTLVTVSS
VL: NFMLTQPHSVSESPGKTVTISCTRSSGSIASNYVQWYQQRPGSSPTTVIYEDNQRPSGVPDRFSGSIDSSSNSASLTISGLKTEDEADYYCQSYDSSNRVFGGGTKLTVL
notes: as for B1
For B6, the Kd [5] was 1210 nM, the Response [5] was 0.07 and the koff [5] was 0.171 s⁻¹. The kon [5] was 142000 M⁻¹ s⁻¹, the Kd [6] was 108 nM and the Response [6] was 0.31. It also gave a koff [6] of 0.0157 s⁻¹ and a kon [6] of 145000 M⁻¹ s⁻¹.

B7: ABL-CD3-15 (antibody, V domains shown)
VH: EVQLVESGGGLVKPGGSLRLSCAASGFNCSSYSMNWVRQAPGKGLEWVSSISRSSNYIYYADSVKGRFSISRDDAKNSLYLQMNSLRAEDTAVYYCARERWIQLYSDYWGQGILVTVSS
VL: NFMLTQPHSVSESPGKTVTISCTRSSGSIASNYVQWYQQRPGSSPTTVIYEDNQRPSGVPDRFSGSIDSSSNSASLTISGLKTEDEADYYCQSYDSSNRVFGGGTKLTVL
notes: as for B1
In the case of B7, the Kd [3] is reported as 1.62 nM, the Response [3] is reported as 0.93 and the koff [3] is reported as 0.000276 s⁻¹. The kon [3] was 171000 M⁻¹ s⁻¹, the Kd [4] was 6.54 nM and the Response [4] was 0.83. For the same binder, the koff [4] was 0.00113 s⁻¹ and the kon [4] was 173000 M⁻¹ s⁻¹.

B8: ABL-CD3-19 (antibody, V domains shown)
VH: EVQLVESGGGLVKPGGSLRLSCAASGFTLSSYSMNWVRQAPGKGLEWVSSISRSSSYIYYADSVKGRFTISRDNAKNSLYLQMNSLRAEDTAVYYCARERWELLYFDYWGQGTLVTVSS
VL: NFMLTQPHSVSESPGKTVTISCTRSSGSIASNYVQWYQQRPGSSPTTVIYEDNQRPSGVPDRFSGSIDSSSNSASLTISGLKTEDEADYYCQSFDNSNRVFGGGTKLTVL
notes: as for B1
With B8 the Kd [6] was 23.3 nM, the Response [6] was 0.6 and the koff [6] was 0.00191 s⁻¹. For the same binder, the kon [6] was 81700 M⁻¹ s⁻¹, the Kd [4] was 62.9 nM and the Response [4] was 0.4. For the same binder, the koff [4] was 0.00665 s⁻¹ and the kon [4] was 106000 M⁻¹ s⁻¹.

B9: CD3 × CD33-BspAb65 (bispecific antibody)
scFv-Fc: NFMLTQPHSVSESPGKTVTIACTRSSGSIASNYVQWYQQRPGSSPTTVIYEDNQRPSGVPDRFSGSIDSSSNSASLTISGLKTEDEADYYCQSYDSSNQVFGCGTKLTVLGGGGSGGGGSGGGGSGGGGSQVTLKESGPGILQPSQTLSLTCSFSGFSLSTFGMGVGWIRQPSGKCLEWLAHIWWDDDKYYNPALKSRLTISKDTSKNQVFLKIANVDTADTATYYCARLGYYPYWFFDVWGTGTTVTVSSGGGGSDKTHTCPPCPAPEFEGGPSVFLFPPKPKDTLMISRTPEVTCVVVDVSHEDPEVKFNWYVDGVEVHNAKTKPREEQYNSTYRVVSVLTVLHQDWLNGKEYKCKVSNKALPASIEKTISKAKGQPREPQVYTLPPCREEMTKNQVSLWCLVKGFYPSDIAVEWESNGQPENNYKTTPPVLDSDGSFFLYSKLTVDKSRWQQGNVFSCSVMHEALHNHYTQKSLSLSPGK
heavy: EVQLVQSGAEVKKPGSSVKVSCKASGYTITDSNIHWVRQAPGQSLEWIGYIYPYNGGTDYNQKFKNRATLTVDNPTNTAYMELSSLRSEDTAFYYCVNGNPWLAYWGQGTLVTVSSASTKGPSVFPLAPSSKSTSGGTAALGCLVKDYFPEPVTVSWNSGALTSGVHTFPAVLQSSGLYSLSSVVTVPSSSLGTQTYICNVNHKPSNTKVDKRVEPKSCDKTHTCPPCPAPEFEGGPSVFLFPPKPKDTLMISRTPEVTCVVVDVSHEDPEVKFNWYVDGVEVHNAKTKPREEQYNSTYRVVSVLTVLHQDWLNGKEYKCKVSNKALPASIEKTISKAKGQPREPQVCTLPPSREEMTKNQVSLSCAVKGFYPSDIAVEWESNGQPENNYKTTPPVLDSDGSFFLVSKLTVDKSRWQQGNVFSCSVMHEALHNRFTQKSLSLSPGK
light: DIQLTQSPSTLSASVGDRVTITCRASESLDNYGIRFLTWFQQKPGKAPKLLMYAASNQGSGVPSRFSGSGSGTEFTLTISSLQPDDFATYYCQQTKEVPWSFGQGTKVEVKRTVAAPSVFIFPPSDEQLKSGTASVVCLLNNFYPREAKVQWKVDNALQSGNSQESVTEQDSKDSTYSLSSTLTLSKADYEKHKVYACEVTHQGLSSPVTKSFNRGEC
In the case of B9, the flow cytometry signal (CD33 on KILR-HL60 cells [7]) is reported as 605000 and the flow cytometry signal (CD33 on KILR-HL60 cells [8]) is reported as 533000.

B10: ABL-CD3-6 (antibody, V domains shown)
VH: EVQLVDSGGGLVKPGGSLRLSCAASGFTFSSYSMNWVRQAPGKGLEWVSSISSRGSYRNYADSVKGRFTISRDNAKNSLYLQMNSLRAEDTAVYYCARDRRELLLDCWGQGTLVTVSS
VL: SYELTQPPSVSVSPGQTARITCSGDALPKKYAYWYQQKSGQAPVLVIYEDSKRPSGIPERFSGSSSGTMATLTISGAQVEDEADYYCYSTDSSGNHSWVFGGGTKLTVL
notes: as for B1
In the case of B10, the Kd [6] is reported as 69.7 nM, the Response [6] is reported as 0.3 and the koff [6] is reported as 0.0333 s⁻¹. It also gave a kon [6] of 477000 M⁻¹ s⁻¹, a Kd [4] of 138 nM and a Response [4] of 0.17. It also gave a koff [4] of 0.0779 s⁻¹ and a kon [4] of 566000 M⁻¹ s⁻¹.

B11: ABL-CD3-38 (antibody, V domains shown)
VH: QGQLQQWGAGLLKPSETLSLTCAVYGGSFSGYYWSWIRLPPGKGLEWIGEINHSGNTNYNPSLKSRVTISVDTSKNQFSLQLSSVTAADTAVYYCAKEVEIWGYFDYWGQGTLVTVSS
VL: QSVLTQPPSVSGAPGQRVTISCTGSSSNIGAGYDVHWYQQLPGTAPKLLIYGNSNRPSGVPDRFSGSKSGTSASLAITGLQAEDETDYNCQSYDSSLSGYVFGTGTKVTVL
notes: as for B1
Work on B11 yielded a Kd [9] of 1.41 nM, a Response [9] of 0.73 and a koff [9] of 0.00035 s⁻¹. For the same binder, the kon [9] was 248000 M⁻¹ s⁻¹, the Kd [2] was 1.36 nM and the Response [2] was 0.73. It also gave a koff [2] of 0.000331 s⁻¹ and a kon [2] of 243000 M⁻¹ s⁻¹.
